According to the supplement of paper PMC9112550, “Optimization of the antimicrobial peptide Bac7 by deep mutational scanning” (BMC Biology, 2022):

Each sequence was assayed on Escherichia coli TOP10 (assay: shrunken log2 fold change of peptide-encoding DNA abundance (4.5 h post-induction vs induction); higher = less antimicrobial activity (less host growth inhibition)). Conditions: time post-induction: 4.5 h; library: site-saturation at positions 5, 18, 19, 20.
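Note: peptides expressed intracellularly from a pBAD plasmid library in pooled LB shake-flask culture, induced with 0.3% L-arabinose, DNA abundance read by NGS, three biological replicates, DESeq2 with apeglm shrinkage.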

| Sequence | shrunken log2 fold change |
| --- | --- |
| RRIRVRPPRLPRPRPRPKFRPRP | 0.0323 |
| RRIRVRPPRLPRPRPRPKGRPRP | 0.211 |
| RRIRVRPPRLPRPRPRPKHIPRP | -0.47 |
| RRIRVRPPRLPRPRPRPKHNPRP | -0.292 |
| RRIRVRPPRLPRPRPRPKIRPRP | 0.161 |
| RRIRVRPPRLPRPRPRPKKGPRP | 0.13 |
| RRIRVRPPRLPRPRPRPKKRPRP | 0.154 |
| RRIRVRPPRLPRPRPRPKLPPRP | -0.266 |
| RRIRVRPPRLPRPRPRPKMEPRP | -0.0457 |
| RRIRVRPPRLPRPRPRPKNMPRP | -0.866 |
| RRIRVRPPRLPRPRPRPKPGPRP | 0.507 |
| RRIRVRPPRLPRPRPRPKPHPRP | 0.264 |
| RRIRVRPPRLPRPRPRPKPSPRP | 0.313 |
| RRIRVRPPRLPRPRPRPKQEPRP | 0.239 |
| RRIRVRPPRLPRPRPRPKQPPRP | 0.11 |
| RRIRVRPPRLPRPRPRPKRWPRP | 0.706 |
| RRIRVRPPRLPRPRPRPKSEPRP | 0.0185 |
| RRIRVRPPRLPRPRPRPKSNPRP | -0.206 |
| RRIRVRPPRLPRPRPRPKSVPRP | -0.00455 |
| RRIRVRPPRLPRPRPRPKTDPRP | -0.202 |
| RRIRVRPPRLPRPRPRPKTNPRP | -0.117 |
| RRIRVRPPRLPRPRPRPKYDPRP | -0.269 |
| RRIRVRPPRLPRPRPRPKYHPRP | -0.373 |
| RRIRVRPPRLPRPRPRPKYKPRP | -0.574 |
| RRIRVRPPRLPRPRPRPLADPRP | 0.279 |

| Sequence | shrunken log2 fold change |
| --- | --- |
| RRIRVRPPRLPRPRPRPLCLPRP | -0.376 |
| RRIRVRPPRLPRPRPRPLCRPRP | -0.149 |
| RRIRVRPPRLPRPRPRPLCYPRP | -0.4 |
| RRIRVRPPRLPRPRPRPLEEPRP | 0.0793 |
| RRIRVRPPRLPRPRPRPLHFPRP | -0.346 |
| RRIRVRPPRLPRPRPRPLHQPRP | 0.0791 |
| RRIRVRPPRLPRPRPRPLKFPRP | 0.044 |
| RRIRVRPPRLPRPRPRPLKTPRP | -0.0304 |
| RRIRVRPPRLPRPRPRPLLMPRP | -0.325 |
| RRIRVRPPRLPRPRPRPLLQPRP | 0.0881 |
| RRIRVRPPRLPRPRPRPLNHPRP | -0.17 |
| RRIRVRPPRLPRPRPRPLNKPRP | -0.323 |
| RRIRVRPPRLPRPRPRPLNPPRP | -0.113 |
| RRIRVRPPRLPRPRPRPLPLPRP | 0.0752 |
| RRIRVRPPRLPRPRPRPLQLPRP | -0.091 |
| RRIRVRPPRLPRPRPRPLRDPRP | 0.725 |
| RRIRVRPPRLPRPRPRPLRGPRP | 0.764 |
| RRIRVRPPRLPRPRPRPLSLPRP | -0.0403 |
| RRIRVRPPRLPRPRPRPLSMPRP | -0.0717 |
| RRIRVRPPRLPRPRPRPLWKPRP | -0.0321 |
| RRIRVRPPRLPRPRPRPLYVPRP | -0.705 |
| RRIRVRPPRLPRPRPRPMGCPRP | 0.0117 |
| RRIRVRPPRLPRPRPRPMHVPRP | 0.0592 |
| RRIRVRPPRLPRPRPRPMIWPRP | -0.179 |
| RRIRVRPPRLPRPRPRPMLEPRP | 0.0706 |

| Sequence | shrunken log2 fold change |
| --- | --- |
| RRIRVRPPRLPRPRPRPMLPPRP | 0.0351 |
| RRIRVRPPRLPRPRPRPMLYPRP | -0.375 |
| RRIRVRPPRLPRPRPRPMMLPRP | -0.0127 |
| RRIRVRPPRLPRPRPRPMPIPRP | 0.055 |
| RRIRVRPPRLPRPRPRPMQEPRP | -0.0018 |
| RRIRVRPPRLPRPRPRPMQKPRP | 0.533 |
| RRIRVRPPRLPRPRPRPMRFPRP | 0.48 |
| RRIRVRPPRLPRPRPRPMRWPRP | 0.0506 |
| RRIRVRPPRLPRPRPRPMVDPRP | -0.0954 |
| RRIRVRPPRLPRPRPRPMWAPRP | 0.0354 |
| RRIRVRPPRLPRPRPRPMYPPRP | -0.413 |
| RRIRVRPPRLPRPRPRPNAMPRP | -0.234 |
| RRIRVRPPRLPRPRPRPNANPRP | 0.063 |
| RRIRVRPPRLPRPRPRPNCAPRP | 0.289 |
| RRIRVRPPRLPRPRPRPNFCPRP | -0.139 |
| RRIRVRPPRLPRPRPRPNGKPRP | -0.407 |
| RRIRVRPPRLPRPRPRPNHMPRP | -0.0124 |
| RRIRVRPPRLPRPRPRPNIAPRP | 0.249 |
| RRIRVRPPRLPRPRPRPNIVPRP | 0.000276 |
| RRIRVRPPRLPRPRPRPNKGPRP | -0.47 |
| RRIRVRPPRLPRPRPRPNLFPRP | -0.355 |
| RRIRVRPPRLPRPRPRPNMCPRP | -0.576 |
| RRIRVRPPRLPRPRPRPNMEPRP | -0.151 |
| RRIRVRPPRLPRPRPRPNNEPRP | -0.301 |
| RRIRVRPPRLPRPRPRPNNRPRP | -0.276 |
